Changes are numbered by the printed parent chain.
B1: anti-ROR1 scFv ROR1-1 fused to murine IgG2a Fc (scFv-mFc) (Fc fusion, part only; not given: murine IgG2a Fc and junction, not shown: another chain or arm of the molecule; a dimerising Fc or GST)
scFv: QVQLQESGPGLVKPSETLSLTCTVSGGSISNYYWSWIRQPAGKGLEWIGRIYTSGSTNYNPSLKSRVTMSVDTSKNQFSLKLSSLTAADTAIYYCARYYDILTGFFDYWGQGTLVTVSSGGGGSGGGGSGGGGSVIWMTQSPSLLSASTGDSVTISCRMSQDISSYLAWYQQKPGKAPELLIYAASSLQSGVPSRFSGSGSGTDFTLTISSLQSEDFATYYCQQYDSFPPTFGQGTKVEFKR
B2: scFv-Fc of the binding domain of anti-ROR1 CAR-F (scFv SEQ ID NO:118), used on the plasma membrane protein array (Fc fusion)
chain: B1 scFv
notes: also called the scFv; not shown: Fc
B3: reference R12 scFv fused to murine IgG2a Fc (scFv-mFc) (Fc fusion, part only; not given: murine IgG2a Fc and junction, not shown: another chain or arm of the molecule; a dimerising Fc or GST)
scFv: QEQLVESGGRLVTPGGSLTLSCKASGFDFSAYYMSWVRQAPGKGLEWIATIYPSSGKTYYATWVNGRFTISSDNAQNTVDLQMNSLTAADRATYFCARDSYADDGALFNIWGPGTLVTISSGGGGSGGGGSGGGGSELVLTQSPSVSAALGSPAKITCTLSSAHKTDTIDWYQQLQGEAPRYLMQVQSDGSYTKRPGVPDRFSGSSSGADRYLIIPSVQADDEADYYCGADYIGGYVFGGGTQLTVTG
B4: anti-ROR1 scFv ROR1-3 fused to murine IgG2a Fc (scFv-mFc) (Fc fusion, part only; not given: murine IgG2a Fc and junction, not shown: another chain or arm of the molecule; a dimerising Fc or GST)
scFv: QVQLVQSGAEVKKPGASVKVSCKASGYTFTSYGISWVRQAPGQGLEWMGWISAYNGNTKYAQKLQGRVTMTTDTSTSTAYMELRSLRSDDTAVYYCARDEDILTGYNYYGMDVWGQGTTVTVSSGGGGSGGGGSGGGGSQLVLTQSPSASASLGASVKLTCTLSSGHSSYAIAWHQQQPEKGPRYLMKLNSDGSHSKGDGIPDRFSGSSSGAERYLTISSLQSEDEADYYCQTWGTGIRVFGGGTKLTVLG
B5: anti-ROR1 scFv ROR1-4 fused to murine IgG2a Fc (scFv-mFc) (Fc fusion, part only; not given: murine IgG2a Fc and junction, not shown: another chain or arm of the molecule; a dimerising Fc or GST)
scFv: B4 scFv with V5L, N55T, K59R, D99E, D101G, I102A, L103T, G105D, N107D, T119A
B6: anti-ROR1 scFv ROR1-2 fused to murine IgG2a Fc (scFv-mFc) (Fc fusion, part only; not given: murine IgG2a Fc and junction, not shown: another chain or arm of the molecule; a dimerising Fc or GST)
scFv: QLQLQESGPGLVKPSETLSLTCTVSGGSINSTTSYWAWIRQPPGKGLEWIGTIFYSGKTYNNPSLKSRVTMSVDTSKNHFSLKVNSVTAADTAVYYCARFDYGFHDAFDIWGQGTMVTVSSGGGGSGGGGSGGGGSEIVMTQSPATLSLSPGERATLSCRASQSITSDYLSWYQQKPGQAPRLLIYGASTRATGIPARFSGSGSGTDFTLTISSLQPEDFVVYYCQQDYNLYTFGQGTKLEIKR

How the values were obtained:
[1] = target: recombinant human ROR1 extracellular domain with a C-terminal 6xHis tag (human) (UniProt Q01973); assay: SPR (Biacore), scFv-mFc captured on an anti-mouse IgG chip, ROR1 ECD 6xHis injected at 183, 61.0, 20.33, 6.78 and 2.26 nM, multi-cycle kinetics, 1:1 Binding model, 25 °C
Chain of recombinant human ROR1 extracellular domain with a C-terminal 6xHis tag (human) (Q01973 other isoform, or with tags, fused parts or gaps): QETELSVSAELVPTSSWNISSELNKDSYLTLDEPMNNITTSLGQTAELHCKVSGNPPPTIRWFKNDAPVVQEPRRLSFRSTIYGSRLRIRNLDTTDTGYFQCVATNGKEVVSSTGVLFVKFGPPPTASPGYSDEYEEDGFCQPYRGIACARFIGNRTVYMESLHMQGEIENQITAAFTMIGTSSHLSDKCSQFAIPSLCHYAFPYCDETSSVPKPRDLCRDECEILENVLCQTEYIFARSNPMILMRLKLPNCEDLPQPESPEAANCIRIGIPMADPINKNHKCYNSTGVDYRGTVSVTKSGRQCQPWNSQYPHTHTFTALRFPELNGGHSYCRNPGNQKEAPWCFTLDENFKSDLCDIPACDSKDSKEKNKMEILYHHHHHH

[2] = target: recombinant human ROR1 extracellular domain with a C-terminal 6xHis tag (human) (UniProt Q01973); assay: SPR (Biacore T200): scFv-mFc captured on anti-mouse IgG chip, ROR1 ECD 6xHis injected, multi-cycle kinetics, 1:1 model
[3] = target: T1, human ROR2 expressed on cells of the plasma membrane protein array (human, UniProt Q01974 34-943); assay: plasma membrane protein array: immunohistochemistry with scFv-Fc on cells overexpressing individual human membrane proteins, with confirmation screening
T1 construct: whole, on cells; also called receptor tyrosine kinase-like orphan receptor 2
T1 sequence (Q01974 34-943): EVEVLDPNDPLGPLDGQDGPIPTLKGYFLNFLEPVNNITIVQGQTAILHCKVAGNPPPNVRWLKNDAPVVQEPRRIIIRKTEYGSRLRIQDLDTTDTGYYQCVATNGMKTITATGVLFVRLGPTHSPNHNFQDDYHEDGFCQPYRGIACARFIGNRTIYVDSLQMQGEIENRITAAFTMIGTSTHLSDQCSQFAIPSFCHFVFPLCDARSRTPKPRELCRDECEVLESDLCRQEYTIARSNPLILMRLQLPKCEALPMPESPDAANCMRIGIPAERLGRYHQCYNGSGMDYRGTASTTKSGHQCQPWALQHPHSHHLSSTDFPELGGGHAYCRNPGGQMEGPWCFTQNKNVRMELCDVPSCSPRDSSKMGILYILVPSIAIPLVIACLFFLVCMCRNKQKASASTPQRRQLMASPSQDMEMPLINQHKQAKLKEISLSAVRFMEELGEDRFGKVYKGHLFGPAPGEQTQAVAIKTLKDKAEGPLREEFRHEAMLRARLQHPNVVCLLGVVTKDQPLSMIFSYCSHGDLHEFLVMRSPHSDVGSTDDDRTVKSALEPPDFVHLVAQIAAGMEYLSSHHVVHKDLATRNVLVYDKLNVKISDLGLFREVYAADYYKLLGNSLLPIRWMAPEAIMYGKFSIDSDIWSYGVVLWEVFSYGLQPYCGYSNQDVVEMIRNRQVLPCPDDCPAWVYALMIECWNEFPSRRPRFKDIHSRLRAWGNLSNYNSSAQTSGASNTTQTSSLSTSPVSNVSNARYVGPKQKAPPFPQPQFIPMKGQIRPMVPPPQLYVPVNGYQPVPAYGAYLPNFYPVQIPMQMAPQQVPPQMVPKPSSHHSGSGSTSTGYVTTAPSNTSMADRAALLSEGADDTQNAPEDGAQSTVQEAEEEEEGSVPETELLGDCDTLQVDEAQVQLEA
Protocol: (§1) Off-target binding was assessed based on a plasma membrane protein array. This chip-based platform contains over 4400 groups of cells genetically engineered to overexpress individual human extracellular membrane proteins that together represent over 75% of the human extracellular proteome. The panel also includes over 1000 tethered secreted protein targets. An scFv-Fc (scFv sequence set forth in SEQ ID NO:118) was generated and used for immunohistochemistry (IHC) against the cells in the array. Confirmation screening was performed.

[4] = target: T2, human ROR1 expressed on cells (human, UniProt Q01973 30-937); assay: plasma membrane protein array: immunohistochemistry on cells overexpressing individual human membrane proteins
T2 construct: also called hROR1; K562-ROR1-TetOn
T2 sequence (Q01973 30-937): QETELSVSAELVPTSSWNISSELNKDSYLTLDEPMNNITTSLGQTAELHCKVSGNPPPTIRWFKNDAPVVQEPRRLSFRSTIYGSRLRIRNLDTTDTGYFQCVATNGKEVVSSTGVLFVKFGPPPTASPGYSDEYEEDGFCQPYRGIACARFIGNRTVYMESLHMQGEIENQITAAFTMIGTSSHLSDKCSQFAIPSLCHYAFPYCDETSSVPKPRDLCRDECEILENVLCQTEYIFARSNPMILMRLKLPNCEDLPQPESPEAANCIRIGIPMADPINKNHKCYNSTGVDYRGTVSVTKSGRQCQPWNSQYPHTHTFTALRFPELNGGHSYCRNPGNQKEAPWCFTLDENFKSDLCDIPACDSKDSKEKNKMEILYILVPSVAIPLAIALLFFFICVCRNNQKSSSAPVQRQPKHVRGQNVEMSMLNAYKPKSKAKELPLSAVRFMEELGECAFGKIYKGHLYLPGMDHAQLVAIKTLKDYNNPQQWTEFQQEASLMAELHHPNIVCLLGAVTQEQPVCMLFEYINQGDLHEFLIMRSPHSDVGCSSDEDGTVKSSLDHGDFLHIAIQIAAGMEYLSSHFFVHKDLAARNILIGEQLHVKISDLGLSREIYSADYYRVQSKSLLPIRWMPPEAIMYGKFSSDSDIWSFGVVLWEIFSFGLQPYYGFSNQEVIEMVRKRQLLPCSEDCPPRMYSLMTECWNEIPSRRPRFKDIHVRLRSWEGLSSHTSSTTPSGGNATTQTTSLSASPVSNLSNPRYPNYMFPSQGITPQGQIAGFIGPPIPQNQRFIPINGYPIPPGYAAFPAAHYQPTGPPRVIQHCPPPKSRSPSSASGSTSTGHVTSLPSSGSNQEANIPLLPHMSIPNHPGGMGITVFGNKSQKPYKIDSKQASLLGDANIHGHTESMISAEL
Protocol: as §1

[5] = target: recombinant human ROR1 extracellular domain with a C-terminal 6xHis tag (human) (UniProt Q01973); assay: SPR (Biacore), scFv-mFc captured on an anti-mouse IgG chip, ROR1 ECD 6xHis injected in a concentration series up to 183 nM, multi-cycle kinetics, 1:1 Binding model, 25 °C

| Binder | Kd [1] | koff [1] | kon [1] | Kd [2] | koff [2] | kon [2] | binding result [3] | binding result [4] | Kd [5] | koff [5] | kon [5] |
| --- | --- | --- | --- | --- | --- | --- | --- | --- | --- | --- | --- |
| B1 | 42 nM | 0.005 s⁻¹ | 119000 M⁻¹ s⁻¹ | 42 nM | 0.005 s⁻¹ | 119000 M⁻¹ s⁻¹ | – | – | – | – | – |
| B2 | – | – | – | – | – | – | no binding | binds | – | – | – |
| B3 | – | – | – | 0.942 nM | 0.000579 s⁻¹ | 614000 M⁻¹ s⁻¹ | – | – | 0.942 nM | 0.000579 s⁻¹ | 614000 M⁻¹ s⁻¹ |
| B4 | 0.924 nM | 1.08e-05 s⁻¹ | 11700 M⁻¹ s⁻¹ | 0.924 nM | 1.08e-05 s⁻¹ | 11700 M⁻¹ s⁻¹ | – | – | – | – | – |
| B5 | 13.8 nM | 0.00022 s⁻¹ | 16000 M⁻¹ s⁻¹ | 13.8 nM | 0.00022 s⁻¹ | 16000 M⁻¹ s⁻¹ | – | – | – | – | – |
| B6 | 0.0956 nM | 3.94e-05 s⁻¹ | 412000 M⁻¹ s⁻¹ | 0.0957 nM | 3.94e-05 s⁻¹ | 412000 M⁻¹ s⁻¹ | – | – | – | – | – |

Reference: US20250242020A1 (JUNO THERAPEUTICS, published 2025)
